# Assay: soluble on expression in E. coli; label from the status in PepcDB or PDB records
row,Sequence,soluble on expression in E. coli
1,MSLDEIKIEKLKKLDKKALNELIDVYMSGYEGLEEYGGEGRDYARNYIKWCWKKASDGFFVAKVGDKIVGFIVCDKDWFSKYEGRIVGAIHEFVVDKKFQGKGIGRKLLITCLDFLGKYNDTIELWVGEKNYGAMNLYEKFGFKKVGKSGIWVRMIKRQNLEGHHHHHH,soluble
2,MNKIHLCTLAVLTSLSFSSLAKDCDANLLPSWKDSDSKTAIVNFVEQSTDSSKATFIPVSDRIAVFDNDGTLWSEKPIYFQIAFALDQIKALAKTHPEWKTQEPFKSVIENDLEKVFAGGKESLLQIMKVTHSGMTVEEYQQSVEQWLAAAKDKRFGKAYNDLTFKPMREMLTYLQENNFKTYIVSGGGVDFMRVWAPEAYNIPEEQIIGSALKYEYSFNDGQPKVMKLGELLTLDDKEVKVENIQYIIGKKPVLAVGNSDGDQAMMQWATSQPNSMAMIVHHTDEAREWKYDRQSDVGRLDKALDEANERDNWQLIDMKNDWCAVY,not soluble
3,MEVYSKLRAPPSSRMILRLDGRGFHRLTESLDFDRPYDEAFRDLMIRTCLDLMEEFSPSLIYTFSDEINVLLDSVPFAGRVEKLDSVFSGFASSSFTRGALEAGFSPVKPVSFDCRVIPISSDIVPEYFRSRQDESWRNCLNSYAYWTLRREVGARRAAERLRGLKSDSLHDLLFERGVNISRVPAWQRRGVGVYRVPHRVRGYNPIRDEEVSAVRMRVKVDLELPLFTDEFFEGLMRLEHHHHHH,soluble
4,MAGDPMGGAGLDNAQNVRNQTQNQTKPIHVSDRNEAFNRHNENEQFGYVRYQKEQFDGEQQKTPVMNREETAHMISSLTVQLPHIQDAATLVTDREALVVYKTDSKNRELTADQVKKTAASVIPRYYHVYISDNPNHMQSVENYSNLGSGSRDIREIMSGTIQEMKTSPQGSPVSENENANGETRQDMKIDRNDKNARLEHHHHHH,soluble
5,MGSDKIHHHHHHMLCENCHFNEAEVKLTVKGIDSTHEKWVCSVCAQGENPWLHSNDDNTYHTHQDDIEEAFVVKQILQHLAAKHGINFHEMAFKEEKKCPTCQMTLKDIAHVGKLGCADCYATFKEDIIDIVQRVQGGQFEHVGKTPQSSYKKLAIKKQIEEKSKYLNKLIDGQEFEEAAIVRDEIKALKSESEVSHDE,not soluble
6,MVNYKEKLDEAIHLTQQKGFEQTRAEWLMLDVFQWTRTDFVVHMHDDMPKAMIMKFDLALQRMLLGEPIQYIVGFASFYGRTFDVNSNCLIPRPETEEVMLHFLQQLEDDATIVDIGTGSGVLAITLKCEKPDLNVIATDISLEAMNMARNNAEKHQSQIQFLTGDALKPLINEGIKLNGLISNPPYIDEKDMVTMSPTVTRFEPHQALFADNHGYAIYESIIEDLPHVMEKGSPVVFEIGYNQGEALKSIILNKFPDKKIDIIKDINGHDRIVSFKW,not soluble
7,SSGRSVRAETRSRAKDDIKKVMAATERVRRWEKKWVTVGDTSLRIFKWVPVTETKQIYKPKGAGPAVRELKGFPTDVVLENARSVLLDFQDDNSNQSFLSDAYQSNTKVDSSSNSSPQHVSEAVSPSHPPYYRTEDSQPPTLGQESMEAEREASTTSSEVTDEPPTLIKEDVLSLSTQEEEEAIGAPPLKRVCTEHNSTVS,soluble
8,SLVASGYPLSQTFGHGDIHFLPPELADARTSKIKVPFQSLLCDGEDEFRKGARYVLREGVDFIKIFVTGGVASQKDKPEFPQMTRGEIAAVVEEARRAGRLVHAHAESSEGYINAVEEGVKTLAHGMDLNQDAINLSVEKDVTLIPTLSIVDVALKFGPSNNLPEWMLEKLKEVHEIHAESIKRAYRERVRLATGTDFFIGAKEVQLYGLNSLEIKLLVGLGVKPMDALKAVIKEGEIVKQS,not soluble
9,MSLHEYELNQDLLAENKRLAEKNREALRESGTVAVNIMGAIGSGKTLLIERTIERIGNEVKIGAMLGDVVSKADYERVRRFGIKAEAISTGKECHLDAHMIYHRLKKFSDCDLLLIENVGNLICPVDFDLGENYRVVMVSVTEGDDVVEKHPEIFRVADLIVINKVALAEAVGADVEKMKADAKLINPRAKIIEMDLKTGKGFEEWIDFLRGILNVHSDSGQNEGGSHHHHHH,soluble
10,MARKKVQRKLDGWKSKEWYNIEAPAYLNRVIVGTTMAGDPSLLVGRNVETTVGELTNDMTKNNTKVILRVNNVVGDIATTDLMGHELTTDYVRSIVKRQTSRIDANVDVRTKDGFVIRVKPTCFTIKRARSSQMQAIREMMVDIVKKRASETDFETFMQEAILGRLSAAIYRQAKFIYPLRRVEIRKTQVEAMPAAAPAAPAAALEHHHHHH,soluble
11,MGSDKIHHHHHHMIINNVNMVLSQEIIHGSLEVRNGVIHHINDRPSRHPGALDGEQAWLLPGLVELHTDNLDKCFTPRPGVNWPSEAAMRNHDALIISSGITTVLDAVAVGDVRDGGHRLENLRRMTDAVLYSQQHGTNRADHHLHLRCELPHQDTFPLFEQLADIPLVALASLMDHSPGQRQFSSQEKYHQYYKGKYHLNDEQMAAFEEEQLAGSRRWSQPNREAIVRLCHEKGITLASHDDATSEHITESHQHRVAIAEFPTTEIAAQQAHGVGMNVLMGAPNVICGGSHSGNVSAHHLATLGVLHILSSDYYPASLLEAAFMIAEDERNDYDLPRAIALVSNNPAQALKFDDRGCIEEGRRADLLLVKRHAPQMKLMRVWRQGVRVF,not soluble
12,MSLSRLPVIVGFGGYNAAGRSSFHHGFRRMVIESMDPQARQETLAGLAVMMKLVKAEGGRYLAEDGTPLSPEDIERRYAERIFASTLVRRIEPQYLDPDAVHWHKVLEATPAEGQALTFKASPKQLPEPLPGNWSVTPAADGEVLVSIHERCEFKVDSYRPLTVKSAGQLPTGFEPGELYNSRFHPRGLQMSVVAATDAIRSTGIDWQTIVDNVQPDEIAVFSGSIMSQLDDNGFGGLMQSRLKGHRVSAKQLPLGFNSMPTDFINAYVLGSVGMTGSITGACATFLYNLQKGIDVITSGQARVVIVGNSEAPILPECIEGYSAMGALATEEGLRLIEGRDEVDFRRASRPFGENCGFTLAESSQYVVLMDDELALRLGADIHGAVTDVFINADGFKKSISAPGPGNYLTVAKAVASAVQIVGLDTVRHASFVHAHGSSTPANRVTESEILDRVASAFGIDGWPVTAVKAYVGHSLATASADQLISALGTFKYGILPGIKTIDKVADDVHQQRLSISNRDVRQDKPLEVCFINSKGFGGNNASGVVLSPRIAEKMLRRRHGEAAFAAYVEKREQTRGAARAYDQRALQGDLEIIYNFGQDLIDEQAIEVSAEQVTVPGFSQPLVYKKDARFSDMLDEGHHHHHH,soluble
13,MGSDKIHHHHHHEKKDKKENDTSAVQATETDCTAAELVTTEPEGEITISEMIDQRIKEEGKIMIYRMCIAESNTPVEITEDLKVKIISYDGDKLKGYKNPDDFLMETRLGDIIHNKVDYSTYNIGTYGGNWKRHRYVSGGDEKYVEEEGYVQREITTDDSGNNAQLETLYSYSKGTLYSRDAGSKEWNQTEKEDSLDIVSFGTFERIKLDGKTYMTFCVRDNLNLIEYDIIPDNKFTENKTVVYDTPGTEKTTVNTVDYLKEYQAVPKEELEQMIVFPGSKKAESSQAAD,not soluble
14,MKQIAFIGLGHMGAPMATNLLKAGYLLNVFDLVQSAVDGLVAAGASAARSARDAVQGADVVISMLPASQHVEGLYLDDDGLLAHIAPGTLVLECSTIAPTSARKIHAAARERGLAMLDAPVSGGTAGAAAGTLTFMVGGDAEALEKARPLFEAMGRNIFHAGPDGAGQVAKVCNNQLLAVLMIGTAEAMALGVANGLEAKVLAEIMRRSSGGNWALEVYNPWPGVMENAPASRDYSGGFMAQLMAKDLGLAQEAAQASASSTPMGSLALSLYRLLLKQGYAERDFSVVQKLFDPTQGQ,soluble
15,MSLSEGPKKAGVLGSPIAHSRSPQLHLAAYRALGLHDWTYERIECGAAELPVVVGGFGPEWVGVSVTMPGKFAALRFADERTARADLVGSANTLVRTPHGWRADNTDIDGVAGALGAAAGHALVLGSGGTAPAAVVGLAELGVTDITVVARNSDKAARLVDLGTRVGVATRFCAFDSGGLADAVAAAEVLVSTIPAEVAAGYAGTLAAIPVLLDAIYDPWPTPLAAAVGSAGGRVISGLQMLLHQAFAQVEQFTGLPAPREAMTCALAALDEGHHHHHH,soluble
16,MGSDKIHHHHHHMSSLPLQKSLYPLLRPLGAAYRVLMRARRRRYENGAACGTDVPCVSVGNIGWGGSGKTPVVQWLLQWAAVHGLHAVVLTRGYKASPPGLPYVVTPQSSAAHAGDEPLMLARSCPQATVVVDPVRSRSARWAQERLAPDFFVLDDGFQHVQVARDTDLVLLKKDDLHAEWGRVLPAGSWREGPEALSRAAAFCIKCGSGEFSGLVPDFENRLGSFGVPVFGFSLRPGALIPVCGAHEGAQLPAGAPYVLFSGVGDPAQVAVTVSSFLGYDPVRHHVFADHHGYTQADMDRMAGYGLPLVCTPKDAVKLTAPCGVPVWTLSLETNFHSVWNAQPPAGQAGEGFAQWWQCRWQRLAGLR,not soluble
17,MAHHHHHHMGTLEAQTQGPGSMTGPLAAARSVAATKSMTAPTVDERPDIKKGLAGVVVDTTAISKVVPQTNSLTYRGYPVQDLAARCSFEQVAFLLWRGELPTDAELALFSQRERASRRVDRSMLSLLAKLPDNCHPMDVVRTAISYLGAEDPDEDDAAANRAKAMRMMAVLPTIVAIDMRRRRGLPPIAPHSGLGYAQNFLHMCFGEVPETAVVSAFEQSMILYAEHGFNASTFAARVVTSTQSDIYSAVTGAIGALKGRLHGGANEAVMHDMIEIGDPANAREWLRAKLARKEKIMGFGHRVYRHGDSRVPTMKRALERVGTVRDGQRWLDIYQVLAAEMASATGILPNLDFPTGPAYYLMGFDIASFTPIFVMSRITGWTAHIMEQATANALIRPLSAYCGHEQRVLPGTF,soluble
18,MGHHHHHHSHNTALVLCPFKDSGCKHRCPKLAMARHVEESVKPHLAMMCALVSRQRQELQELRRELEELSVGSDGVLIWKIGSYGRRLQEAKAKPNLECFSPAFYTHKYGYKLQVSAFLNGNGSGEGTHLSLYIRVLPGAFDNLLEWPFARRVTFSLLDQSDPGLAKPQHVTETFHPDPNWKNFQKPGTWRGSLDESSLGFGYPKFISHQDIRKRNYVRDDAVFIRAAVELPRKILS,not soluble
19,MGSDKIHHHHHHMRSADSSPAYSPIGSLSSSHSFDSIPDQRMNKSLLSLACLILCGMPAIAQQTGPAERSGEPSLAERVFGLEQKQKKLKVYLGIQSFYDQPLVDDESHIGHFKVQELRMSAHGELNRHLSFDWRQRLNRAADGTSFADNLSNAIDIAGVDWHPNDKVSFFFGRQYARFGGIEYDMNPVEIYQYSDLVDYMTCYTSGVNFAWNFHPEQQLQLQVLNAYNNRFADRYHVTPDVATATSYPLLYSAQWNGTLLGGALHMRYAVSMAHQAQERNMWYFTAGNLFNPGKRINGYLDLTYSIEGLDDKGIMTARYGKGKTLTDVKYYALVSKWNFRIFDQVNLFLKGMYENGYAPAQYGESSHTRHSYGYMGGVEYYPTETNFRLFVTYIGRHYRYSATETESTNALRAGLIYQIPFL,not soluble
20,MAKLYFYYSAMNAGKTTTLLQSAHNYRERGMRTLILTPKLDHRAGSGVVASRIGLRADGRIFERDTELQQLVERDIHNDGALHCVLVDEAQFLSRAQVWQLSEVVDRLRIPVLCYGLRTDFRGELFEGSQFLLAWADELEEIKTICHSGSKATMTVRVDAHGHAVQDGPQVEIGGNERYVSVSRAEFKKIMRGEGRIDPLQIALPLPVALEHHHHHH,not soluble
